Experimental data as given in patent publication US9018171B2, “Uses of an immunomodulatory protein (GMI) from Ganoderma microsporum” (Mycomagic Biotechnology Co., Ltd., priority 2010, dated 2015).
Where two headings read alike, the source gives them in different places.

Tests used:
786-0 = assay: NCI60 in vitro screening, Renal Cancer; type: cell-based
UO-31 = assay: NCI60 in vitro screening, Renal Cancer; type: cell-based
MALME-3M = assay: NCI60 in vitro screening, Melanoma; type: cell-based
MOLT-4 = assay: NCI60 in vitro screening, Leukemia; type: cell-based
HCC-2998 = assay: NCI60 in vitro screening, Colon Cancer; type: cell-based
NCI-H23 = type: cell-based
LOX IMVI = assay: NCI60 in vitro screening, Melanoma; type: cell-based; settings: one dose
SR = assay: NCI60 in vitro screening, Leukemia; type: cell-based
HCT-15 = assay: NCI60 in vitro screening, Colon Cancer; type: cell-based

B1: GMI: immunomodulatory protein from Ganoderma microsporum, amino acid sequence SEQ ID NO: 3, manufactured by Mycomagic Biotechnology Co., Ltd. (protein, listed as Ganoderma microsporum)
chain: MSDTALIFTLAWNVKQLAFDYTPNWGRGRPSSFIDTVTFPTVLTDKAYTYRVVVSGKDLGVRPSYAVESDGSQKINFLEYNSGYGIADTNTIQVYVIDPDTGNNFIVAQWN
LC50 (BT-549): 7.24E1 | TGI (BT-549; BT-549): 2.27E1 | Percent Growth (BT-549; BT-549, Log10 Concentration 0.1): 100% | Percent Growth (BT-549; BT-549, Log10 Concentration 1.1): 26% | Percent Growth (BT-549; BT-549, Log10 Concentration 2.1): −74% | Percent Growth (BT-549; BT-549, Log10 Concentration −0.9): 98% | Percent Growth (BT-549; BT-549, Log10 Concentration −1.9): 104% | Growth Percent (BT-549; BT-549, one dose): −74.30% | GI50 (BT-549; BT-549, in µg/mL): 5.89E0 | TGI (786-0; 786-0): >1.25E2 | Percent Growth (786-0; 786-0, Log10 Concentration 0.1): 111% | Percent Growth (786-0; 786-0, Log10 Concentration 1.1): 73% | Percent Growth (786-0; 786-0, Log10 Concentration 2.1): 4% | Percent Growth (786-0; 786-0, Log10 Concentration −0.9): 99% | Percent Growth (786-0; 786-0, Log10 Concentration −1.9): 100% | Growth Percent (786-0; 786-0, one dose): 74.75% | GI50 (786-0; 786-0, in µg/mL): 2.70E1 | TGI (UO-31; UO-31): 2.65E1 | Percent Growth (UO-31; UO-31, Log10 Concentration 0.1): 119% | Percent Growth (UO-31; UO-31, Log10 Concentration 1.1): 38% | Percent Growth (UO-31; UO-31, Log10 Concentration 2.1): −77% | Percent Growth (UO-31; UO-31, Log10 Concentration −0.9): 102% | Percent Growth (UO-31; UO-31, Log10 Concentration −1.9): 97% | Growth Percent (UO-31; UO-31, one dose): 14.01% | GI50 (UO-31; UO-31, in µg/mL): 8.79E0 | LC50 (UO-31; UO-31, in µg/mL): 7.22E1 | TGI (MALME-3M): >1.25E2 | Percent Growth (MALME-3M; Log10 Concentration 0.1): 118% | Percent Growth (MALME-3M; Log10 Concentration 1.1): 114% | Percent Growth (MALME-3M; Log10 Concentration 2.1): 74% | Percent Growth (MALME-3M; Log10 Concentration −0.9): 102% | Percent Growth (MALME-3M; Log10 Concentration −1.9): 100% | Growth Percent (MALME-3M; one dose): 114.17% | TGI (MOLT-4; MOLT-4): >1.25E2 | Percent Growth (MOLT-4; MOLT-4, Log10 Concentration 0.1): 103% | Percent Growth (MOLT-4; MOLT-4, Log10 Concentration 1.1): 62% | Percent Growth (MOLT-4; MOLT-4, Log10 Concentration 2.1): 1% | Percent Growth (MOLT-4; MOLT-4, Log10 Concentration −0.9): 97% | Percent Growth (MOLT-4; MOLT-4, Log10 Concentration −1.9): 95% | Growth Percent (MOLT-4; MOLT-4, one dose): 44.75% | GI50 (MOLT-4; MOLT-4, in µg/mL): 1.99E1 | TGI (HCC-2998; HCC-2998): >1.25E2 | Percent Growth (HCC-2998; HCC-2998, Log10 Concentration 0.1): 105% | Percent Growth (HCC-2998; HCC-2998, Log10 Concentration 1.1): 93% | Percent Growth (HCC-2998; HCC-2998, Log10 Concentration 2.1): 88% | Percent Growth (HCC-2998; HCC-2998, Log10 Concentration −0.9): 99% | Percent Growth (HCC-2998; HCC-2998, Log10 Concentration −1.9): 103% | Growth Percent (HCC-2998; HCC-2998, one dose): 132.04% | TGI (NCI-H23; NCI-H23): >1.25E2 | Percent Growth (NCI-H23; NCI-H23, Log10 Concentration 0.1): 106% | Percent Growth (NCI-H23; NCI-H23, Log10 Concentration 1.1): 89% | Percent Growth (NCI-H23; NCI-H23, Log10 Concentration 2.1): 66% | Percent Growth (NCI-H23; NCI-H23, Log10 Concentration −0.9): 101% | Percent Growth (NCI-H23; NCI-H23, Log10 Concentration −1.9): 99% | Growth Percent (NCI-H23; NCI-H23, one dose): 91.82% | Growth Percent (LOX IMVI): 67.70% | TGI (SR): >1.25E2 | Percent Growth (SR; Log10 Concentration 0.1): 96% | Percent Growth (SR; Log10 Concentration 1.1): 17% | Percent Growth (SR; Log10 Concentration 2.1): 1% | Percent Growth (SR; Log10 Concentration −0.9): 96% | Percent Growth (SR; Log10 Concentration −1.9): 98% | GI50 (SR; in µg/mL): 4.79E0 | Growth Percent (SR; one dose): 32.47% | TGI (HCT-15; HCT-15): 5.26E1 | Percent Growth (HCT-15; HCT-15, Log10 Concentration 0.1): 94% | Percent Growth (HCT-15; HCT-15, Log10 Concentration 1.1): 52% | Percent Growth (HCT-15; HCT-15, Log10 Concentration 2.1): −31% | Percent Growth (HCT-15; HCT-15, Log10 Concentration −0.9): 97% | Percent Growth (HCT-15; HCT-15, Log10 Concentration −1.9): 97% | Growth Percent (HCT-15; HCT-15, one dose): 33.64% | GI50 (HCT-15; HCT-15, in µg/mL): 1.31E1
